The values below come from patent US12263210B2, “Immunogenic compounds for cancer therapy” (priority 2016, dated 2025).

One experiment deals with T1, HLA-A*0201 (Homo sapiens, UniProt P04439, D140Y/D185E/D98H/E176V/E277Q/G131W/G231S/I119V/I121R/I166T/I218V/L300P/L318F/N151K/N90K/P208A/P217A/Q86G/Q94H/R138H/R169H/T345S).
T1 construct: the human tumoral cell T2 which expresses the HLA-A*0201 molecule; endogenous in cells; host or cells: T2 cells (human, TAP1/2 negative; 'T2 ATCC Cells')
The experiment in a line: Affinity of the peptide to T2 cell line (HLA-A*0201 expression, FACS). As to conditions: for Affinity to HLA-A*0201 compared with the corresponding human peptide (in words) / Binding to HLA-A*0201 (in words): T2 cells; for Affinity to HLA-A*0201 compared with the corresponding human peptide (in words): relative affinity, lower value = higher affinity; for Relative affinity: conc. inducing 20% expression / same of reference peptide HIV pol 589-597; for HLA-A2 labelling at 0.1 μM / HLA-A2 labelling at 1 μM / HLA-A2 labelling at 10 μM / HLA-A2 labelling at 100 μM: percentage of labelling of HIV pol 589-597 at 100 μM; for HLA-A2 labelling at 0.1 μM: peptide 0.1 μM; for HLA-A2 labelling at 1 μM: peptide 1 μM; for HLA-A2 labelling at 10 μM: peptide 10 μM; for HLA-A2 labelling at 100 μM: peptide 100 μM; for Concentration that induces 20% of expression of the HLA-A*0201 / Mean fluorescence intensity: T2 ATCC cells; for Concentration that induces 20% of expression of the HLA-A*0201: Example 1. The experiment is classed as cell-based. Here is the method: Affinity measurement of the peptides is achieved with the human tumoral cell T2 which expresses the HLA-A*0201 molecule, but which is TAP1/2 negative and incapable of presenting endogenous peptides.
T2 cells (2.10^5 cells per well) are incubated with decreasing concentrations of peptides from 100 μM to 0.1 μM in a AIMV medium supplemented with 100 ng/μl of human β2m at 37° C. for 16 hours. Cells are then washed two times and marked with the anti-HLA-A2 antibody coupled to PE (clone BB7.2, BD Pharmagen).
The analysis is achieved by FACS (Guava Easy Cyte). […]

Experiment [1] deals with IFNγ-producing cells (splenocytes). The experiment in a line: ELISPOT-IFNγ assay on splenocytes of vaccinated β/A2/DR3 mice. It counts as in vivo, mouse. As to conditions: for Percentage of ConA-induced response (ELISPOT-IFNγ): mice vaccinated with the labelled peptide (100 μg s.c. + HHD-DR3, IFA, d0/d14), mean, SEM.
[2] abbreviates: ex vivo re-stimulation with IL13RA2-B pAg 10 μM.
Setting [3] is: ex vivo re-stimulation with IL13RA2-H pAg 10 μM.

In the case of VMLGVVFGI [ERBB2-3B3], the “Affinity to HLA-A*0201 compared with the corresponding human peptide (in words)” value with HLA-A*0201 is recorded as “higher affinity”. Also, in the experiment with HLA-A*0201 (Table 7), the “Conc. inducing 20% of HLA-A2 expression” value turned out to be 12.5 µM.
In the case of ILLGVVFGI [ERBB2-3B4], the “Affinity to HLA-A*0201 compared with the corresponding human peptide (in words)” value with HLA-A*0201 was “higher affinity”. In addition, in the experiment with HLA-A*0201 (Table 7), the “Conc. inducing 20% of HLA-A2 expression” value is 0.9 µM.
In the case of SLPPDVQQV [MMP2-B], the “Affinity to HLA-A*0201 compared with the corresponding human peptide (in words)” value with HLA-A*0201 was “higher affinity”. Besides, the “Conc. inducing 20% of HLA-A2 expression” value with HLA-A*0201 (Table 8) amounted to 0.88 µM.
Taken in the same sequence, the figures for ITSDVPFSV [PMEL-B] were “higher affinity” and 18.24 µM.
With VLLGVVFGV [ERBB2-3B2], the “Affinity to HLA-A*0201 compared with the corresponding human peptide (in words)” value with HLA-A*0201 is given as “higher affinity”. In the experiment with HLA-A*0201 (Table 7), the “Conc. inducing 20% of HLA-A2 expression” value was determined as 6.9 µM, the Relative affinity worked out at 0.19, the “HLA-A2 labelling at 0.1 μM” value was −14.62 and the “HLA-A2 labelling at 1 μM” value is 1.51. Moreover, in the experiment with HLA-A*0201 (Table 7), the “HLA-A2 labelling at 10 μM” value stood at 56.97 and the “HLA-A2 labelling at 100 μM” value is 335.97.
With “KVVEFLAML [MAGE C1H, reference compound]”, the “Conc. inducing 20% of HLA-A2 expression” value with HLA-A*0201 (Table 8) was found to be 60.07 µM.
GLPPDVQRV [MMP2-H, reference compound]: the “Conc. inducing 20% of HLA-A2 expression” value with HLA-A*0201 (Table 8) worked out at 1.76 µM.
In the case of “WLPFGFILI [IL13RA2-H, reference compound]”, in the experiment with HLA-A*0201, the “Concentration that induces 20% of expression of the HLA-A*0201” value came out at 100 µM and the “Binding to HLA-A*0201 (in words)” value is “does not bind”. For the same sequence, the “Percentage of ConA-induced response (ELISPOT-IFNγ)” value (“Percentage of ConA-induced response” for short) in experiment [1] (setting [2]) is on record as 2.0%. In addition, in experiment [1] (setting [3]), the “Percentage of ConA-induced response” value is 1.1%.
Turning to YLAVFLPIV [STEAP-B2], in the experiment with HLA-A*0201, the “Affinity to HLA-A*0201 compared with the corresponding human peptide (in words)” value was “higher affinity”. The “Conc. inducing 20% of HLA-A2 expression” value with HLA-A*0201 (Table 8) was 8.22 µM.
For TMNGSKSPV [ENAH-1H, reference compound], the “Binding to HLA-A*0201 (in words)” value with HLA-A*0201 is reported as “does not bind”. In the experiment with HLA-A*0201 (Table 9), the “HLA-A2 labelling at 0.1 μM” value is given as 8.31, the “HLA-A2 labelling at 1 μM” value is reported as −2.93, the “HLA-A2 labelling at 10 μM” value is reported as 19.07 and the “HLA-A2 labelling at 100 μM” value amounted to 18.58.
Take FLPFGFILV [IL13RA2-B]: in the experiment with HLA-A*0201, the “Concentration that induces 20% of expression of the HLA-A*0201” value stood at 4.4 µM. Further, the Mean fluorescence intensity with HLA-A*0201 (peptide at 0.1 μM) is 9.9; with HLA-A*0201 (peptide at 100 µM) it was 112.03. Besides, in the experiment with HLA-A*0201, the “Binding to HLA-A*0201 (in words)” value is reported as “binds strongly”. In experiment [1] (compared to IL13RA2-H-vaccinated animals (group 2)), the “T cell responses in the ELISPOT-IFNγ assay after vaccination (in words)” value is listed as “improved T cell responses”. Moreover, the “Percentage of ConA-induced response” value in experiment [1] (setting [2]) was found to be 56.3%; in experiment [1] (setting [3]) it was 32.3%.
Turning to MLAVFLPLV [STEAP-B1], the “Affinity to HLA-A*0201 compared with the corresponding human peptide (in words)” value in the experiment with HLA-A*0201 was “higher affinity”. Further, the “Conc. inducing 20% of HLA-A2 expression” value in the experiment with HLA-A*0201 (Table 8) worked out at 5 µM.
Consider KLVEWLAML [MAGE C1B], for which the “Affinity to HLA-A*0201 compared with the corresponding human peptide (in words)” value with HLA-A*0201 is given as “higher affinity”. Further, the “Conc. inducing 20% of HLA-A2 expression” value with HLA-A*0201 (Table 8) is 30.91 µM.
As to MIAVFLPIV [STEAP-H, reference compound], in the experiment with HLA-A*0201 (Table 8), the “Conc. inducing 20% of HLA-A2 expression” value is 33.45 µM.
As to VMLGVVFGV [ERBB2-3B1], in the experiment with HLA-A*0201, the “Affinity to HLA-A*0201 compared with the corresponding human peptide (in words)” value is given as “higher affinity”. In the experiment with HLA-A*0201 (Table 7), the “Conc. inducing 20% of HLA-A2 expression” value is 9 µM.
Taken in the same sequence, the figures for RLLEETDLV [ERBB2-1B] were “higher affinity” and 9.5 µM.
For TMNGKSSPV [ENAH-1B], the “Affinity to HLA-A*0201 compared with the corresponding human peptide (in words)” value in the experiment with HLA-A*0201 is recorded as “higher affinity”. Also, in the experiment with HLA-A*0201 (Table 9), the “Conc. inducing 20% of HLA-A2 expression” value amounted to 33.45 µM, the Relative affinity was 1.26, the “HLA-A2 labelling at 0.1 μM” value is recorded as 12.71 and the “HLA-A2 labelling at 1 μM” value was determined as 14.18. Further, in the experiment with HLA-A*0201 (Table 9), the “HLA-A2 labelling at 10 μM” value is given as 2.93 and the “HLA-A2 labelling at 100 μM” value came to 100.24.
Turning to “VVLGVVFGI [ERBB2-3H, reference compound]”, in the experiment with HLA-A*0201 (Table 7), the “Conc. inducing 20% of HLA-A2 expression” value stood at 16.3 µM, the Relative affinity is 0.45, the “HLA-A2 labelling at 0.1 μM” value was −12.61 and the “HLA-A2 labelling at 1 μM” value was −24.03. Also, in the experiment with HLA-A*0201 (Table 7), the “HLA-A2 labelling at 10 μM” value came out at 11.93 and the “HLA-A2 labelling at 100 μM” value is listed as 196.47.
